{"source": "patent US7943358B2", "about": "“Polymerase enhancing factor (PEF) extracts, PEF protein complexes, isolated PEF protein, and methods for purifying and identifying” (Agilent Technologies, Inc., priority 1997, dated 2011)", "molecules": {"B1": {"name": "PEF: polymerase enhancing factor complex purified from Pyrococcus furiosus; predominant components P50 and P45 (protein)", "chain 1": "MLHHVKLIYATKSRKLVGKKIVXXXPGSIAALDVKACEGLIRHGAEVHAVMSEAATKIIHPYAWNLPTGNPVITEITGFIEHVELAGEHENKADLILVCPATANTISKIACGIDDTPVTTVVTTAFPHIPIMIAPAMHETMYRHPIVRENIERLKKLGVEFIGPRIEEGRAKVASIDEIVYRVIKKLHKKTLEGKRVLVTAGATREYIDPIRFITNASSGKMGVALAEEADFRGAVTLIRTKGSVKAFRIRKIKLKVETVEEMLSAIENELRSKKYDVVIMAAAVSDFRPKIKAEGKIKSGRSITIELVPXNPKIIDRIKEIQPNVFLVGFKAETSKEKLIEEGKRQIERAKADLVVGNTLEAFGSEENQVVLIGRDFTKELPKMKKRELAERIWDEIEKXLS", "chain 2": "MLLPDWKIRKEILIEPFSEESLQPAGYDLRVGREAFVKGKLIDVEKEGKVVIPPREYALILTLERIKLPDDVMGDMKIRSSLAREGVIGSFAWVDPGWDGNLTLMLYNASNEPVELRYGERFVQIAFIRLEGPARNPYRGNYQGSTRLAFSKRKKL", "modifications": "not fully specified; X: residue not identified in the source", "notes": "polymerase enhancing factor complex purified from Pyrococcus furiosus; predominant components P50 and P45"}}, "type_in_all_cases": "biochemical", "key": {"Pfu DNA polymerase": {"biological_target": "T1, Pfu DNA polymerase (Pyrococcus furiosus, UniProt P61875)", "T1 sequence (P61875 1-775)": "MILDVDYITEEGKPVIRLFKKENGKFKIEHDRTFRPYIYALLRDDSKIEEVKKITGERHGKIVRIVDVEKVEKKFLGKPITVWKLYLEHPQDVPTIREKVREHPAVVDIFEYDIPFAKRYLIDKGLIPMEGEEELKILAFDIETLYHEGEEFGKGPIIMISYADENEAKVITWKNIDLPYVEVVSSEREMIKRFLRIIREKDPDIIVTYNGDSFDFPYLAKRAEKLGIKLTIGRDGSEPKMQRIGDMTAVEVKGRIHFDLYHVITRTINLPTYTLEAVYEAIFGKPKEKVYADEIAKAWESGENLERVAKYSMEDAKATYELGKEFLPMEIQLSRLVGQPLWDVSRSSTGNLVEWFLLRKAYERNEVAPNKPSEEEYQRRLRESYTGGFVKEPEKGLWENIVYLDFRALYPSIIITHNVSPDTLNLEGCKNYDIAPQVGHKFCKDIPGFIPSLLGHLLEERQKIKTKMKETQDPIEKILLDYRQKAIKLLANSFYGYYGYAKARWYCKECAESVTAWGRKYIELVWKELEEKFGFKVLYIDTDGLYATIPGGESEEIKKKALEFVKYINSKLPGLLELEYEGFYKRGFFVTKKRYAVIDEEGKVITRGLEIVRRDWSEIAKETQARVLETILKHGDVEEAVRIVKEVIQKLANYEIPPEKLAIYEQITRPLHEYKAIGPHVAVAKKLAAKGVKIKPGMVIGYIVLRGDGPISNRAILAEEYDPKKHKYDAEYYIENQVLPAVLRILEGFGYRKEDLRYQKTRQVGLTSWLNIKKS", "assay": "0.9 kb α1-antitrypsin PCR with unrelated dU-containing or control oligonucleotide", "conditions": "0.8 pmole of dU containing primer; 7 ng PEF"}, "[1]": {"assay": "PCR cycling of dCTP in the presence of PEF or Pfu DNA polymerase, HPLC", "conditions": "10 mM dCTP, 0.5 ng PEF/μl"}, "Taq DNA polymerase": {"biological_target": "Taq DNA polymerase (Thermus aquaticus, UniProt P19821)", "sequence (P19821 whole entry)": "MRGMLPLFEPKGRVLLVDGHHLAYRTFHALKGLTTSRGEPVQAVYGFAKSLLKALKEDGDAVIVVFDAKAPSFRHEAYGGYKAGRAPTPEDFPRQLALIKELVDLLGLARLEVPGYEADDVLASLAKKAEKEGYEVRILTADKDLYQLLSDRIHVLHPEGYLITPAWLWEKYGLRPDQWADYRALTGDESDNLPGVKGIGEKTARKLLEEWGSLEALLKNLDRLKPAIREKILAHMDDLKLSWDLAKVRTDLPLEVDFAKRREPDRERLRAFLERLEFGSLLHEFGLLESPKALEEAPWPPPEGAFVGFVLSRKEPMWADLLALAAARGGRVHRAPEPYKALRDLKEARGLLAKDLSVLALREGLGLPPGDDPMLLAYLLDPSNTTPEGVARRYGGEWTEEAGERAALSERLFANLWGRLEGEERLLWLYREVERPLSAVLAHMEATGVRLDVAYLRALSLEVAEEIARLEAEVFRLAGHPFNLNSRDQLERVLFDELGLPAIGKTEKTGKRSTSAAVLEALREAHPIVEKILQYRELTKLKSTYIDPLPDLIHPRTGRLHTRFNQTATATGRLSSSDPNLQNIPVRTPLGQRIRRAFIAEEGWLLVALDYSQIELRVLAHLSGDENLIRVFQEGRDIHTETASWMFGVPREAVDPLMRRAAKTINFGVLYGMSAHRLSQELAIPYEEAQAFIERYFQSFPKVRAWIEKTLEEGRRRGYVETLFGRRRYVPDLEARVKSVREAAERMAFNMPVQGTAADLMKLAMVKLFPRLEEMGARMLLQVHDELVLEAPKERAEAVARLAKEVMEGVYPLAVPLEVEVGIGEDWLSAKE", "assay": "PCR with Taq DNA polymerase", "method": "FIGS. 33, 34, 35, and 36. Enhancing activity of P. furiosus PEF in PCRs conducted with Pwo (FIG. 33); JDF-3 (FIGS. 34 and 35), ES4 and Vent (FIG. 35). and Deep Vent (FIG. 36) DNA polymerases. In FIG. 33, 25 μl PCRs were conducted using the 6.2 kb test system (example 1) with 25 U/ml Pwo DNA polymerase and 1× cloned Pfu PCR buffer. 1 μl of S200-purified P. furiosus PEF (prep 1; 225 ng/μl) was added undiluted (lane 1) or diluted 1:10 (lane 2), 1:1000 (lane 3), 1:10,000 (lane 4). 1 μl of dilution buffer was added as a negative control (lane 5). In FIG. 34, a 10 kb lambda DNA-target was amplified from lambda DNA (lanes 1-4; 5-7; 11-13) or mouse genomic DNA, containing 40 copies (lanes 8-10) or 1 copy (lanes 14-16) of a lambda DNA transgene. 100 μl PCRs were conducted with 250 ng of lambda DNA (Sigma) or mouse genomic DNA and 250 ng of primers (F51-20 5′[…] (SEQ ID NO: 22); R10163-20 5′CCA-TCT-CAC-GCG-CCA-GTT-TC) (SEQ ID NO: 23). PCRs were conducted in Taq PCR buffer using 5 U Taq DNA polymerase (lanes 1-4) or 1 U JDF3 DNA polymerase (lanes 5-16). 1 μl of the following was added to PCRs: S200-purified PEF (prep. 3; 550 ng/μl PEF) diluted 1:500 (lanes 2, 12, 15), 1:100 (lanes 6, 9), 1:50 (lane 3), 1:10 (lanes 7, 10, 13, 16), or 1:5 (lane 4). 1 μl of dilution buffer was added as a negative control (lanes 1, 5, 8, 11, 14). […]"}}, "data": [{"molecule": "B1", "values": [{"measurement": "amplification in reactions containing dU oligo with PEF", "setting": "Pfu DNA polymerase", "result": "a small amount of amplification product is observed"}, {"measurement": "dCDP after PCR cycling in presence of PEF", "setting": "[1]", "result": 19, "unit": "%"}, {"measurement": "dCMP after PCR cycling in presence of PEF", "setting": "[1]", "result": 8, "unit": "%"}, {"measurement": "dCTP after PCR cycling in presence of PEF", "setting": "[1]", "result": 73, "unit": "%"}, {"measurement": "dUTP after PCR cycling in presence of PEF", "setting": "[1]", "result": "no detectable dUTP"}, {"measurement": "yield of PCR products generated with Taq DNA polymerase", "setting": "Taq DNA polymerase", "result": "may not enhance the yield"}]}]}
